Data: paper PMC6941969

Biological target: VemH (Streptomyces venezuelae ATCC 10712)

Substance VemG (enzyme) has an apparent Kd from enzyme activity: initial velocities of venemycin production (HPLC) at constant 0.2 µM VemH and 0.1–8.0 µM VemG, fit with a quadratic binding equation of 5.1 µM.
